Assay results from patent US5985836A, “Alpha-1 proteinase inhibitor binding peptides” (Bayer Corporation, priority 1998, dated 1999).
Ends that are not written are not given here.

What was measured:
A1PI [1] = biological target: T1, A1PI (Homo sapiens, UniProt P01009); experiment: Purification of A1PI from Effluent II+III on peptide column, A1PI mass balance; format: binding; details: A1PI, 1 ml Eff. II+III, 4° C.
T1 construct: Human plasma is currently the only approved source of therapeutic AlPI
T1 sequence (P01009 25-418): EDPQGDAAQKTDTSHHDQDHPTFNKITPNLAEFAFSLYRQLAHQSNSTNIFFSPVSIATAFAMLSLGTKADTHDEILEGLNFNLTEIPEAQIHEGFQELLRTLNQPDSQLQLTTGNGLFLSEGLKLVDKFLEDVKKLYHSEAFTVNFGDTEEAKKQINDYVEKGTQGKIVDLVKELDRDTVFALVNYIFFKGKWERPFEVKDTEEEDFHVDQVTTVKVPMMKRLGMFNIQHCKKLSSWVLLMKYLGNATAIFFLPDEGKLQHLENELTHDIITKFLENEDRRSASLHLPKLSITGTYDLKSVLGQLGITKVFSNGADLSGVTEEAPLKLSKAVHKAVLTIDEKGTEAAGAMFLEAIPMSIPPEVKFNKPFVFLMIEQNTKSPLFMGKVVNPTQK
Method: (§1) Sequences 1-11 and 15 were assayed with Effluent II+III (Eff. II+III). Eff. II+III is a process intermediate in the Cohn plasma fractionation process. The feed stream contains 20% (by volume) ethanol, 20-25 mg/ml hSA and approximately 1 mg/ml AlPI. The stream also contains other proteins including anti-thrombin III (AT3), immunoglobin G (IgG), immunoglobin A (IgA), apolipoprotein alpha-1 (Apo A-1), transferrin (Trf), haptoglobin (Hpt), and alpha-1 acid glycoprotein (AAG) at concentrations ranging from 0.1-1 mg/ml.
(§2) The columns were assayed using the same technique as the hSA+AlPI experiments, allowing for a 10 minute residence time followed by a constant flow rate of 865 μl/min with step elutions of 1M NaCl, 3M NaCl, and 2% acetic acid. All experiments were conducted at 4° C. The mass balances for the injection of 1 ml Eff. […] The AlPI was enriched from 3% of the total protein in the feed to upwards of 50% in the acid eluate.

A1PI [2] = biological target: T1, A1PI; experiment: A1PI binding on peptide-resin column, injection of 1 mg A1PI in equilibration buffer; details: 1 mg A1PI in equilibration buffer
Summary of the method: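 Percent of total eluted A1PI per fraction (flowthrough, NaCl steps, 2% acetic acid) determined by A280 integration or immunonephelometry. Columns of peptide-derivatized A-Totda-Toyopearl resin (0.1 mmole/g) received 1 mg A1PI at 4 °C or 20 °C, flow 865 or 523 μl/min.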

[3] = biological target: T2, apolipoprotein alpha-1 (Apo A-1) (Homo sapiens, UniProt P02647); experiment: Purification from Effluent II+III, Apo A-1 mass balance; format: binding; details: 1 ml Eff. II+III, 4° C.
T2 construct: Eff; II+III is a process intermediate in the Cohn plasma fractionation process; tissue Bayer Corporation (Clayton, N.C.); host or cells: plasma fraction: Cohn Effluent II+III
T2 sequence (P02647 19-267): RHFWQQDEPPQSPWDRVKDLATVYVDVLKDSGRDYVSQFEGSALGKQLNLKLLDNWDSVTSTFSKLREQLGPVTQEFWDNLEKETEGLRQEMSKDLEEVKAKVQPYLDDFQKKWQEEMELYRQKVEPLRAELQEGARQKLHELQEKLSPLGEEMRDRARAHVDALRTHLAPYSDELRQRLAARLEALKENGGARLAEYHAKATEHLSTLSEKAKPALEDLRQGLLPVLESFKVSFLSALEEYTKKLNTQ
Method: as §1, §2

Immunoglobulin A (IgA) = experiment: Purification from Effluent II+III, IgA mass balance; format: binding, human; details: 1 ml Eff. II+III, 4° C.
Method: as §1, §2

A1PI [4] = biological target: T1, A1PI; experiment: A1PI purification from 5 mg hSA + 1 mg A1PI on peptide column, A1PI mass balance; format: binding; details: A1PI, 5 mg hSA + 1 mg A1PI; for Percent Eluted by Fraction, 1M NaCl / Percent Eluted by Fraction, 2% Ac. Acid / Percent Eluted by Fraction, 3M NaCl / Percent Eluted by Fraction, Flow: relative to total eluted
Method: Confirmatory binding assays were performed in a column chromatographic format on a microbore HPLC using individual peptide sequences synthesized directly onto the Toyopearl 650 M Chelate resin which had been modified with Totda followed by an alanine residue (A-Totda-Toyopearl), at a final substitution density of 0.1 mmole/g resin. The resin was packed into 0.4×5 cm columns (Thomson, Springfield, Va.) and tested on the Michrom HPLC system (Michrom BioResources, Auburn, Calif.). The elution program for all trials utilized the following method. The column was pre-equilibrated with equilibration buffer (as above). 1 ml of sample was injected and allowed sufficient time to flowthrough the column using equilibration buffer. The column was then washed with step elutions of 1M NaCl and 3M NaCl in equilibration buffer. The column was exposed to equilibration buffer with 0.1M NaCl. Any remaining protein was eluted with elution buffer (2% by volume glacial acetic acid in water).
A Gilson FC204 fraction collector at the HPLC outlet collected individual eluates for further analysis. Fractions collected from the 2% acetic acid eluates were neutralized with 2M Tris, pH 10.5 to bring the pH to neutrality. The protein samples were reconstituted in equilibration buffer unless otherwise stated. The samples were analyzed by the integration of the absorbance at 280 nm or by immunonephelometry. The specific method of determination is presented for each figure.
Columns were assayed with a mixture of 5 mg human serum albumin (hSA)+1 mg AlPI at 4° C. (Table 4, Seq. ID 1-11, 15, 17) and 20° C. (Table 5, Seq. ID 1-10, 13, 15, 17). The chromatography method was modified to provide for a 10 minute residence time of sample in the column by decreasing the flow to 17 μl/min (10 cm/hr) upon injection. Following the incubation, the flow was set at 865 μl/min (413 cm/hr) for the step elutions of 1M NaCl, 3M NaCl, and 2% acetic acid. The mass balances presented are based upon immunonephelometry. The Percent Eluted value is protein-specific and based on the amount of the protein eluted in a […]

[5] = * as in Tables 4, 5 (below detection limit)
[6] = 20° C., * Below detection limit

YKFRFW
Percent Eluted by Fraction, 1M NaCl (A1PI [1]): 5%
Percent Eluted by Fraction, 2% Acetic Acid (A1PI [1]): 81%
Percent Eluted by Fraction, 3M NaCl (A1PI [1]): 0%
Percent Eluted by Fraction, Flow (A1PI [1]): 14%
Mass Protein per Eluate Fraction, 1M NaCl (A1PI [1]; [5]): 0.06 mg
Mass Protein per Eluate Fraction, 2% Acetic Acid (A1PI [1]; [5]): 0.92 mg
Mass Protein per Eluate Fraction, Flow (A1PI [1]; [5]): 0.16 mg
Percent A1PI Eluted by Fraction Based on Absorbance at 280 nm, 1M NaCl (A1PI [2]; 4° C.): 64%
Percent A1PI Eluted by Fraction Based on Absorbance at 280 nm, 2% Acetic Acid (A1PI [2]; 4° C.): 36%
Percent A1PI Eluted by Fraction Based on Absorbance at 280 nm, Flowthrough (A1PI [2]; 4° C.): 0%
Percent A1PI Eluted by Fraction, 1M NaCl (A1PI [2]; 20° C.): 75%
Percent A1PI Eluted by Fraction, 2% Acetic Acid (A1PI [2]; 20° C.): 25%
Percent A1PI Eluted by Fraction, Flowthrough (A1PI [2]; 20° C.): 0%
Percent Eluted by Fraction, 1M NaCl [3]: 0%
Percent Eluted by Fraction, 2% Acetic Acid [3]: 100%
Percent Eluted by Fraction, 3M NaCl [3]: 0%
Percent Eluted by Fraction, Flow [3]: 0%
Mass Protein per Eluate Fraction, 2% Acetic Acid [3, 5]: 0.31 mg
Percent Eluted by Fraction, 1M NaCl (Immunoglobulin A (IgA)): 33%
Percent Eluted by Fraction, 2% Acetic Acid (Immunoglobulin A (IgA)): 30%
Percent Eluted by Fraction, 3M NaCl (Immunoglobulin A (IgA)): 0%
Percent Eluted by Fraction, Flow (Immunoglobulin A (IgA)): 37%
Mass Protein per Eluate Fraction, 1M NaCl (Immunoglobulin A (IgA); [5]): 0.11 mg
Mass Protein per Eluate Fraction, 2% Acetic Acid (Immunoglobulin A (IgA); [5]): 0.10 mg
Mass Protein per Eluate Fraction, Flow (Immunoglobulin A (IgA); [5]): 0.13 mg
Mass Protein per Eluate Fraction, 1M NaCl (A1PI [4]; 4° C., * Below detection limit): 0.28 mg
Mass Protein per Eluate Fraction, 2% Ac. Acid (A1PI [4]; 4° C., * Below detection limit): 0.46 mg
Mass Protein per Eluate Fraction, 3M NaCl (A1PI [4]; 4° C., * Below detection limit): 0.04 mg
Percent Eluted by Fraction, 1M NaCl (A1PI [4]; 4° C.): 36%
Percent Eluted by Fraction, 2% Ac. Acid (A1PI [4]; 4° C.): 60%
Percent Eluted by Fraction, 3M NaCl (A1PI [4]; 4° C.): 5%
Percent Eluted by Fraction, Flow (A1PI [4]; 4° C.): 0%
Mass Protein per Eluate Fraction, 1M NaCl (A1PI [4]; [6]): 0.16 mg
Mass Protein per Eluate Fraction, 2% Ac. Acid (A1PI [4]; [6]): 0.30 mg
Mass Protein per Eluate Fraction, Flow (A1PI [4]; [6]): 0.41 mg
Percent Eluted by Fraction, 1M NaCl (A1PI [4]; 20° C.): 18%
Percent Eluted by Fraction, 2% Ac. Acid (A1PI [4]; 20° C.): 34%
Percent Eluted by Fraction, 3M NaCl (A1PI [4]; 20° C.): 0%
Percent Eluted by Fraction, Flow (A1PI [4]; 20° C.): 48%
